Results reported in article PMC3314626 (2012).

Target: T1, ALC1 peptide (Homo sapiens, UniProt O94985)
T1 chain: KENEMDWDDSALTI
Experiment: ITC

B1: KLC1 TPR (protein)
chain: GGYEIPARLRTLHNLVIQYASQGRYEVAVPLCKQALEDLEKTSGHDHPDVATMLNILALVYRDQNKYKDAANLLNDALAIREKTLGKDHPAVAATLNNLAVLYGKRGKYKEAEPLCKRALEIREKVLGKDHPDVAKQLSNLALLCQNQGKYEEVEYYYQRALEIYQTKLGPDDPNVAKTKNNLASCYLKQGKFKQAETLYKEILTRAHEREFGSVDDENKPIWMHAEEREECKGKQKDGTSFGEYGGWYKACKVDSPTVTTTLKNLGALYRRQGKFEAAETLEEAAMRSRKQG
- Kd: 44 µM

B2: KLC1 TPR (protein)
chain: GGYEIPARLRTLHNLVIQYASQGRYEVAVPLCKQALEDLEKTSGHDHPDVATMLNILALVYRDQNKYKDAANLLNDALAIREKTLGKDHPAVAATLNNLAVLYGKRGKYKEAEPLCKRALEIREKVLGKDHPDVAKQLNNLALLCQNQGKYEEVEYYYQRALEIYQTKLGPDDPNVAKTKNNLASCYLKQGKFKQAETLYKEILTRAHEREFGSVDDENKPIWMHAEEREECKGKQKDGTSFGEYGGWYKACKVDSPTVTTTLKNLGALYRRQGKFEAAETLEEAAMRSRKQG
- Kd: 50 µM
